In publication PMC13681993 (2026) one finds Kd data, which are given here for one molecule.

The target in assay [1] is T1, EGFR C-tail Y1016/Y1138 980-1210 (Homo sapiens, UniProt P00533).
T1 chain: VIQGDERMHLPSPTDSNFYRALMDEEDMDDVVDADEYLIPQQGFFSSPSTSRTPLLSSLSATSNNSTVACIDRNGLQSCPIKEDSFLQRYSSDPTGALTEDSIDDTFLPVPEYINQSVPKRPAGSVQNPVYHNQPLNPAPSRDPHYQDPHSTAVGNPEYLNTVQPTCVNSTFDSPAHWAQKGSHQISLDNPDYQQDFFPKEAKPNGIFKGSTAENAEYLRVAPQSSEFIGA
In words: BLI. Background: Biolayer interferometry detects binding as a change in optical thickness at a sensor tip.

Assay [2] deals with T2, EGFR C-tail Y1016/Y1092 980-1210 (Homo sapiens, UniProt P00533).
T2 chain: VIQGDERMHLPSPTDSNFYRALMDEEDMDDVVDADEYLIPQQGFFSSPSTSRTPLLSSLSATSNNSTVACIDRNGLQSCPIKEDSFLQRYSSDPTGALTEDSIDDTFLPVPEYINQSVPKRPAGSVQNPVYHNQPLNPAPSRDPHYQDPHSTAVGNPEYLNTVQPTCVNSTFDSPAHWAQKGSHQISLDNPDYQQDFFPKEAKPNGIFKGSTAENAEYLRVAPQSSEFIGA
Description: BLI.

B1: PLCγ1 tandem SH2 N-SH2-C-SH2 (protein)
chain: WFHGKLGAGRDGRHIAERLLTEYCIETGAPDGSFLVRESETFVGDYTLSFWRNGKVQHCRIHSRQDAGTPKFFLTDNLVFDSLYDLITHYQQVPLRCNEFEMRLSEPVPQTNAHESKEWYHASLTRAQAEHMLMRVPRDGAFLVRKRNEPNSYAISFRAEGKIKHCRVQQEGQTVMLGNSEFDSLVDLISYYEKHPLYRKMKLRYPI
With B1, the figures for the dissociation constant (Kd) in assay [1] and in assay [2] were 63.4 nM and 429 nM, respectively.
